# Source: patent publication US20090081786A1, “Peptide sequences for modulation of protein kinase C” (priority 2006, published 2009)
# B1: δ-PKC: full length δ-protein kinase C (SEQ ID NO:16) (protein, listed as Homo sapiens)
# chain: MAPFLRISFNSYELGSLQVEDEASQPFCAVKMKEALSTERGKTLVQKKPTMYPEWKTTFDAHIYEGRVIQIVLMRAAEDPVSEVTVGVSVLAERCKKNNGKAEFWLDLQPQAKVLMCVQYFLEDGDCKQSMRSEEEAKFPTMNRRGAIKQAKIHYIKNHEFIATFFGQPTFCSVCKEFVWGLNKQGYKCRQCNAAIHKKCIDKIIGRCTGTATNSRDTIFQKERFNIDMPHRFKVYNYMSPTFCDHCGSLLWGLVKQGLKCEDCGMNVHHKCREKVANLCGINQKLLAEALNQVTQRSSRKLDTTESVGIYQGFEKKPEVSGSDILDNNGTYGKIWEGSTRCTLENFTFQKVLGKGSFGKVLLAELKGKDKYFAIKCLKKDVVLIDDDVECTMVEKRVLALAWESPFLTHLICTFQTKDHLFFVMEFLNGGDLMFHIQDKGRFELYRATFYAAEIICGLQFLHSKGIIYRDLKLDNVMLDRDGHIKIADFGMCKENIFGEGRASTFCGTPDYIAPEILQGLKYSFSVDWWSFGVLLYEMLIGQSPFHGDDEDELFESIRVDTPHYPRWITKESKDIMEKLFERDPDKRLGVTGNIRIHPFFKTINWSLLEKRKVEPPFKPKVKSPSDYSNFDPEFLNEKPQLSFSDKNLIDSMDQEAFHGFSFVNPKFEQFLDI
# B2: δ-V1: V1/C2 domain of δ-PKC (SEQ ID NO:18), used as myelin basic protein fusion (protein)
# chain: MAPFLRISFNSYELGSLQAEDDASQPFCAVKMKEALTTDRGKTLVQKKPTMYPEWKSTFDAHIYEGRVIQIVLMRAAEDPMSEVTVGVSVLAERCKKNNGKAEFWLDLQPQAKVLMCVQYFLEDGDCKQSMRSEEEAMFPTMNRRGAIKQAKIHYIKNHE
# modifications: left off: large carriers
# B3: ε-V1: V1 region of ε-PKC (SEQ ID NO:20) (protein, listed as Homo sapiens)
# chain: MVVFNGLLKIKICEAVSLKPTAWSLRHAVGPRPQTFLLDPYIALNVDDSRIGQTATKQKTNSPAWHDEFVTDVCNGRKIELAVFHDAPIGYDDFVANCTIQFEELLQNGSRHFEDWIDLEPEGKVYVIIDLSGSSGEAPKDNEE
# Biological target: T1, annexin V (Homo sapiens, UniProt P08758)
# T1 sequence (P08758 1-320): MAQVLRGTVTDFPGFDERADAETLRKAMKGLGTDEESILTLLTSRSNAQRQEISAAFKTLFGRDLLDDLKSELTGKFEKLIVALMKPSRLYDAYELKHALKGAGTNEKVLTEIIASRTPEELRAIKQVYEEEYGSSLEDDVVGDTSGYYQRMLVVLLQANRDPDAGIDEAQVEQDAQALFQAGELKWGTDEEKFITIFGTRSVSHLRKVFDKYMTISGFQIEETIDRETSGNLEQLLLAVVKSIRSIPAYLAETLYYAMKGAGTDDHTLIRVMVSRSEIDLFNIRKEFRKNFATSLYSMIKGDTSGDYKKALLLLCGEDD
# Test: overlay binding assay on immobilized annexin V
# Details: immobilized annexin V on nitrocellulose, overlay 37° C. 30 min, Western blotting
# Description: A binding assay was performed in vitro, using an immobilized annexin V with the δ-PKC, δ-V1 (SEQ ID NO:18) (the C2 domain of δ-PKC), δ-V5 (SEQ ID NO:19), and ε-V1 (SEQ ID NO:20) peptides. These domains are recognized in the art as participating in protein-protein interactions.
# 10 μg of the annexin V was separated on 12% SDS-PAGE gel and transferred to nitrocellulose, and then cut into strips. The strips were incubated with blocking buffer (50 mM Tris pH 7.5, 200 mM NaCl, 3% bovine serum albumin, 0.1% PEG20). The strips were then incubated in overlay buffer (50 mM Tris pH 7.5, 200 mM NaCl, 1% PEG20, 12 mM β-mercaptoethanol) in the presence where appropriate of 30 μg crude bacterial cell lysate containing fusion proteins of myelin basic protein (MBP)-delta V1 PKC (MBP-δV1), glutathione-S-transferase-delta V5 PKC (GST-δV5), and full length sequences of δ-PKC or rat purified ε-PKC (SEQ ID NO:21) at 37° C. for 30 min. The strips where then washed with wash buffer (50 mM Tris pH 7.5, 200 mM NaCl, 0.1% PEG20, 12 mM β-mercaptoethanol), and then incubated with fixative (0.2% formaldehyde in PBS) and neutralizing solution (0.2M glycine in PBS) at room temperature 20 min each. After washing with buffer, the strips were probed with antibodies according to the overlay protein, and resulting bands were visualized using ECL Western blotting.
row,Molecule,binding to annexin V
1,B1,bind to the annexin V
2,B2,bind to the annexin V
3,B3,did not bind to the annexin V
